# What was measured:
# [1] = tested on: SST expression; test: qPCR of SST expression in hiPSC-GABA neurons exposed to BMP4; format: cell-based, human; conditions: BMP4 exposure during either or both of weeks 3 and 4
# Method: (§1) After quantification, 1 μg of RNA was retrotranscribed with Superscript III First-Strand Synthesis SuperMix for qRT-PCR (Thermo Fisher Scientific Life Sciences). A total of 2 μl of cDNA was used for qPCR using the SYBR Select Master Mix. Real-Time PCR was run on a LightCycler 480 Instrument II (Roche Life Science). The cycling program for all genes is the following: • 1. 95° C. 10′ Initial denaturation step • 2. 95° C. 30″ • 3. 58° C. 30″ • 4. 72° C. 30″ go to 2 for 35 cycles • 5. Melting curve analysis.
# (§2) iGABAergic neurons were prepared according to an adaptation of the method described in Example 5. During the GABAergic differentiation protocol, hiPSCs were exposed to BMP4, during week 3 only (i.e. about DIV14 to about DIV21), week 4 only (i.e. about DIV21 to about DIV28) or during week 3 and week 4 (i.e. about DIV14 to about DIV28). Following differentiation (i.e. DIV28) the iGABAergic neurons were assessed for expression of somatostatin (SST) and Parvalbumin (PVALB). BMP4 treated cells were then be tested for their ability to reverse neuropathic pain and compared to non-treated iGABAergic neurons using the SNI model as hereinbefore described.
# [2] = tested on: PAVB expression; test: qPCR of PAVB expression in hiPSC-GABA neurons exposed to BMP4; format: cell-based, human; conditions: BMP4 exposure during week 3 (about DIV14 to DIV21); not with week 4 or weeks 3 and 4
# Method: as §1, §2
molecule,measurement,setting,value
"BMP4: agent which induces BMP signalling, added during GABAergic differentiation of hiPSCs (protein, UniProt P12644 293-408, looked up) Bone morphogenetic protein 4: SPKHHSQRARKKNKNCRRHSLYVDFSDVGWNDWIVAPPGYQAFYCHGDCPFPLADHLNSTNHAIVQTLVNSVNSSIPKACCVPTELSAISMLYLDEYDKVVLKNYQEMVVEGCGCR",reduction of SST expression,[1],50%
same,increase of PAVB expression,[2],6 fold

# — US20210244768A1, “CELL COMPOSITIONS AND USES THEREOF” (THE UNIVERSITY OF SYDNEY, priority 2018, published 2021)
